Data as given in US20050282743A1, “Molecular interactions in cells” (Arbor Vita Corporation, priority 2001, published 2005).
Ends that are not written are not given here. Peptide text beside a SMILES is read from it. * marks the point of attachment. Biotin = O=C1N[C@H]2[C@H](CS[C@H]2CCCCC(=O)*)N1

The molecules below were run against T1, PDZ protein (GST-PDZ fusion) (Homo sapiens, UniProt P29074) (assay: G' assay (10 uM PL peptide), results of TABLE 7 and TABLE 12). Details: PDZ PTN-4, PDZ Domain 1.
T1 construct: made in house; host or cells: E. coli (DH5alpha, BL21 or JM109)
T1 sequence (P29074 1-926): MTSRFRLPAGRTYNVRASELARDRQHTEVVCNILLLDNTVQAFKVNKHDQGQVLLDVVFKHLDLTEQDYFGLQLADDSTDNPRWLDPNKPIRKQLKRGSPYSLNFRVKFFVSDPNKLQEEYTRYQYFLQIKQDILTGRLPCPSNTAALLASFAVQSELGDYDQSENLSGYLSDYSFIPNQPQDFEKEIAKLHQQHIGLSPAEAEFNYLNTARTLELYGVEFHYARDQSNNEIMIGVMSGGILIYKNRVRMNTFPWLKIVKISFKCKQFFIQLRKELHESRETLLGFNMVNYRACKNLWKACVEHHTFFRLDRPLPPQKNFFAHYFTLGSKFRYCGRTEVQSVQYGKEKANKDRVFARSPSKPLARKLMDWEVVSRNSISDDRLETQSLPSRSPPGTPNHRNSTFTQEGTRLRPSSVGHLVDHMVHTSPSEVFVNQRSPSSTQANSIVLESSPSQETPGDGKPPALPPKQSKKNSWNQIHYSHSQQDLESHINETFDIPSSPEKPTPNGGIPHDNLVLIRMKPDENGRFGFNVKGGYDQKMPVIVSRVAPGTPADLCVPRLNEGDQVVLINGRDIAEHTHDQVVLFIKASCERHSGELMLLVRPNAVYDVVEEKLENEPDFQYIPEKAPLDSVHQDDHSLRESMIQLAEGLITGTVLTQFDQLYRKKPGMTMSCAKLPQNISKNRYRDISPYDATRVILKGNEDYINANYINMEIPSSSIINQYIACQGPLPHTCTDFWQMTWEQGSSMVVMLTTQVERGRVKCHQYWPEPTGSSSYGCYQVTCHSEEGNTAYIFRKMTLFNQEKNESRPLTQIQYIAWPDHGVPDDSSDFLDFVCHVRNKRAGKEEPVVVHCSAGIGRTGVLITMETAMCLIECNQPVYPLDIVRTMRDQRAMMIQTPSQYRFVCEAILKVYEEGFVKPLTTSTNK
Format: binding
Summary of the method: (§1)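 Biotin-PL peptide (N-term label), 10 uM vs GST-PDZ; protein 5 ug/ml by default. A450 nm binned: 1 = 0-1, 2 = 1-2, 3 = 2-3, 4 = 3-4, 5 = >4 on >2 repeats, 0 = no binding.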

Row | Molecule | Classification
1 | QATSRNGHSARQHVVADTEL (Biotin-QATSRNGHSARQHVVADTEL) [CD34] | 1 (A450 nm 0-1)
2 | CC(C)C[C@H](NC(=O)[C@H](C)NC(=O)[C@@H](NC(=O)[C@H](CCC(=O)O)NC(=O)[C@H](CCCNC(=N)N)NC(=O)[C@H](CCCNC(=N)N)NC(=O)CNC(=O)[C@H](CCC(N)=O)NC(=O)[C@H](CC(C)C)NC(=O)[C@H](CCCNC(=N)N)NC(=O)CNC(=O)CNC(=O)[C@H](CCCNC(=N)N)NC(=O)[C@H](C)NC(=O)[C@H](CO)NC(=O)[C@H](CCCNC(=N)N)NC(=O)CNC(=O)CNC(=O)[C@H](C)NC(=O)[C@H](C)NC(=O)CCCC[C@@H]1SC[C@@H]2NC(=O)N[C@@H]21)[C@@H](C)O)C(=O)O [HPV E6 33 (modified)] (Biotin-AAGGRSARGGRLQGRRETAL-OH; C-terminus assumed) | 1 (A450 nm 0-1)
3 | TQGFPGPATWRRISSLESEV | 2 (A450 nm 1-2)
4 | CSCC[C@H](NC(=O)[C@H](C)NC(=O)[C@H](CCCNC(=N)N)NC(=O)CNC(=O)[C@@H](NC(=O)[C@H](Cc1c[nH]c2ccccc12)NC(=O)[C@H](CCCNC(=N)N)NC(=O)CNC(=O)CCCC[C@@H]1SC[C@@H]2NC(=O)N[C@@H]21)[C@@H](C)O)C(=O)N[C@@H](CO)C(=O)N[C@@H](C)C(=O)N[C@@H](Cc1c[nH]c2ccccc12)C(=O)N[C@@H](CCCCN)C(=O)N1CCC[C@H]1C(=O)N[C@H](C(=O)N[C@@H](CCCNC(=N)N)C(=O)N[C@@H](CCCNC(=N)N)C(=O)N[C@@H](CCC(=O)O)C(=O)N[C@H](C(=O)N[C@@H](CCC(=O)O)C(=O)N[C@H](C(=O)O)C(C)C)[C@@H](C)O)[C@@H](C)O [HPV E6 #35 (modified)] (Biotin-GRWTGRAMSAWKPTRRETEV-OH; C-terminus assumed) | 4 (A450 nm 3-4)
5 | CC[C@H](C)[C@H](NC(=O)[C@H](CCC(N)=O)NC(=O)CCCC[C@@H]1SC[C@@H]2NC(=O)N[C@@H]21)C(=O)N[C@@H](CO)C(=O)N1CCC[C@H]1C(=O)NCC(=O)NCC(=O)N[C@@H](CC(C)C)C(=O)N[C@@H](CCC(=O)O)C(=O)N1CCC[C@H]1C(=O)N1CCC[C@H]1C(=O)N[C@@H](CO)C(=O)N[C@@H](CCC(=O)O)C(=O)N[C@@H](CCCCN)C(=O)N[C@@H](Cc1c[nH]cn1)C(=O)N[C@@H](Cc1ccccc1)C(=O)N[C@@H](CCCNC(=N)N)C(=O)N[C@@H](CCC(=O)O)C(=O)N[C@H](C(=O)N[C@@H](CCC(=O)O)C(=O)N[C@H](C(=O)O)C(C)C)[C@@H](C)O [Tax] | 2 (A450 nm 1-2)

The molecules below were run against T2, PDZ protein (GST-PDZ fusion) (Homo sapiens, UniProt Q99767) in the same assay as above. Details: PDZ X11-beta, PDZ Domain 1.
T2 construct: made in house; host or cells: E. coli (DH5alpha, BL21 or JM109)
T2 sequence (Q99767 1-749): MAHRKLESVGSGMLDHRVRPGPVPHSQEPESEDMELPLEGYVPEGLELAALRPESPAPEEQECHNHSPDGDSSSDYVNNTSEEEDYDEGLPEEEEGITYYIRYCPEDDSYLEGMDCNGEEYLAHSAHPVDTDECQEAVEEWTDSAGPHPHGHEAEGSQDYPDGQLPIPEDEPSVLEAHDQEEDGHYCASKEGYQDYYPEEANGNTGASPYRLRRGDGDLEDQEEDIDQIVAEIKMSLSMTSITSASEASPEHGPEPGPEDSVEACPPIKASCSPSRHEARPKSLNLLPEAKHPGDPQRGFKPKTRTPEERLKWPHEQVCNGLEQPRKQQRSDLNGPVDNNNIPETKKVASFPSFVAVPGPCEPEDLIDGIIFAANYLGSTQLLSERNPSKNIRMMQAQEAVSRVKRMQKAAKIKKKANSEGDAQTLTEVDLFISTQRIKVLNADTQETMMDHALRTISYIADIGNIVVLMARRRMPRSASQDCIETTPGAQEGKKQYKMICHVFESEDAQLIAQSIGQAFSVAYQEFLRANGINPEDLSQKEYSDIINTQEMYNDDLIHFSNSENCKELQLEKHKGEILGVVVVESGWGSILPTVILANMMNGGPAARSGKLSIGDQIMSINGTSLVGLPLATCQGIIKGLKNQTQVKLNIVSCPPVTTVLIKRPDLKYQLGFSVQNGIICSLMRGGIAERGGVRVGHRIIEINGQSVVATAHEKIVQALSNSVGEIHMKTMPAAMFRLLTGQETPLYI
Format: binding
Summary of the method: as §1

Row | Classification | Molecule
6 | 2 (A450 nm 1-2) | A2AA_HUMAN (modified) (Biotin-HDFRRAFKKILARGDRKRIV; not fully specified)

Same assay, conditions: PDZ X11-beta, PDZ Domain 2

Row | Classification | Molecule
7 | 1 (A450 nm 0-1) | A2AA_HUMAN (modified) (Biotin-HDFRRAFKKILARGDRKRIV; not fully specified)
8 | 2 (A450 nm 1-2) | ELLQFCRTPNPALKNGQYWV (Biotin-ELLQFCRTPNPALKNGQYWV)
9 | 1 (A450 nm 0-1) | ALVLIAFCIIRRRPSAYQAL (Biotin-ALVLIAFCIIRRRPSAYQAL) [CD68]

The molecules below were run against T3, PDZ protein (GST-PDZ fusion) (Homo sapiens, UniProt Q9NR12) in the same assay as above. Details: PDZ ENIGMA, PDZ Domain 1.
T3 construct: made in house; host or cells: E. coli (DH5alpha, BL21 or JM109)
T3 sequence (Q9NR12 whole entry, the tested form may be a part): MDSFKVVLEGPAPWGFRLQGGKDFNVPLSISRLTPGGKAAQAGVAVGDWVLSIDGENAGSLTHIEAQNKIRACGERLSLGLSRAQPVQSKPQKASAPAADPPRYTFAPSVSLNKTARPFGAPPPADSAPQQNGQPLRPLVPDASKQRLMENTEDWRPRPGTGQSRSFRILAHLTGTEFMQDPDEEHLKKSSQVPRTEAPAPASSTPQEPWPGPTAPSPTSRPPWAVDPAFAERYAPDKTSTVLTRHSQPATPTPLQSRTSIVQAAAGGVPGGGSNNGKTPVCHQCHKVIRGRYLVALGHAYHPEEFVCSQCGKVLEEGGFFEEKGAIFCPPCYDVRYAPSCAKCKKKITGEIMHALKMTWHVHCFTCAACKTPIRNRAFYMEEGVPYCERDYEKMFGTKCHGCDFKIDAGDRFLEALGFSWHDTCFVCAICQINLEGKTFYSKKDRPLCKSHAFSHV
Format: binding
Summary of the method: as §1

Row | Classification | Molecule
10 | 1 (A450 nm 0-1) | VHDAESSDEDGYDWGPATDL (Biotin-VHDAESSDEDGYDWGPATDL) [zona occludens 3 (ZO-3)]
11 | 5 (A450 nm of 4 more than 2× repeated) | CC(C)C[C@H](NC(=O)[C@H](CC(=O)O)NC(=O)[C@H](CO)NC(=O)[C@H](CCC(=O)O)NC(=O)CNC(=O)[C@H](Cc1ccc(O)cc1)NC(=O)[C@H](CC(C)C)NC(=O)[C@H](C)NC(=O)[C@H](CO)NC(=O)[C@H](CO)NC(=O)[C@H](Cc1ccccc1)NC(=O)[C@H](C)NC(=O)[C@H](C)NC(=O)[C@H](Cc1ccc(O)cc1)NC(=O)[C@H](CC(=O)O)NC(=O)[C@H](CC(C)C)NC(=O)[C@H](C)NC(=O)CNC(=O)[C@@H]1CCCN1C(=O)[C@@H](NC(=O)CCCC[C@@H]1SC[C@@H]2NC(=O)N[C@@H]21)C(C)C)C(=O)O [a-actinin 2] (Biotin-VPGALDYAAFSSALYGESDL-OH; C-terminus assumed)
12 | 1 (A450 nm 0-1) | GGGGGSGGGGGSGIESVKI [GLUR2 (glutamate receptor 2-modified)]
